Measurements taken from publication PMC4538836, “Human DNA ligase III bridges two DNA ends to promote specific intermolecular DNA end joining”.

How the values were obtained:
[1] = molecular target: T1, DNA ligase III beta (LigIII) (Homo sapiens, UniProt P49916-4 1-862); assay: fluorescence anisotropy; stoichiometric titration, 1 LigIII : 2 DNA; 50 mM HEPES-NaOH pH 7.5, 80 mM NaCl, 5 mM MgCl2, 1 mM DTT, 1 mM ATP, 50 ug/ml BSA; anisotropy 25 C (25 nM DNA), TR-FRET room temperature, pull-down 4 C; conditions: protein: recombinant; tags: N-terminal His (pQE32); label: 5'-FITC on strand 1; blunt
T1 sequence: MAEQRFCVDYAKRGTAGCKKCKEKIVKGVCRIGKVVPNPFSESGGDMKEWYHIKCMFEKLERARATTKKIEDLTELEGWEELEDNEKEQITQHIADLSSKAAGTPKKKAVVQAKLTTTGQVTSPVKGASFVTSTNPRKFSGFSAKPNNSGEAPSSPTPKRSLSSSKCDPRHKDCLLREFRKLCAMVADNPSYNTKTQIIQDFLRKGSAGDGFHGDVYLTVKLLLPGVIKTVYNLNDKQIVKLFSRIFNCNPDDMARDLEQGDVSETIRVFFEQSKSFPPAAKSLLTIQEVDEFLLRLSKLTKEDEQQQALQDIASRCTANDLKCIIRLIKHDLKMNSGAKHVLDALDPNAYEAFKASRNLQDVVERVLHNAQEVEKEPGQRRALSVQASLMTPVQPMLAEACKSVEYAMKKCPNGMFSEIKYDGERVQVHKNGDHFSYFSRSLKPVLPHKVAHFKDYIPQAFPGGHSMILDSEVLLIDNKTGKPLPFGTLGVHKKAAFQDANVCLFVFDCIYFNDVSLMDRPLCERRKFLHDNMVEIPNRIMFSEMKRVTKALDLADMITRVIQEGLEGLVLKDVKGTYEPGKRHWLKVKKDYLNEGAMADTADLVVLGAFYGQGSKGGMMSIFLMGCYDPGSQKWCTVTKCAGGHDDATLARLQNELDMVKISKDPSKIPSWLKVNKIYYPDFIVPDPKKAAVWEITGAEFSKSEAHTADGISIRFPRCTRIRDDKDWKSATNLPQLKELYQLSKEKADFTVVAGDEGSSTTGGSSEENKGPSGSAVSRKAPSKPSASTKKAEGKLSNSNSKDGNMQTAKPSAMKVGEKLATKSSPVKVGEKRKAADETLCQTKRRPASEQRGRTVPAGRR

[2] = molecular target: T1, DNA ligase III beta (LigIII); assay: TR-FRET; DNA bridging; 5 mM Mg2+, 1 mM ATP; 50 mM HEPES-NaOH pH 7.5, 80 mM NaCl, 5 mM MgCl2, 1 mM DTT, 1 mM ATP, 50 ug/ml BSA; anisotropy 25 C (25 nM DNA), TR-FRET room temperature, pull-down 4 C; conditions: protein: recombinant; tags: N-terminal His (pQE32); label: 5'-biotin on S1; 5'-FITC on S3; two blunt duplexes

B1: FITC blunt duplex (dsDNA)
DNA 1: CATGATTACGG
DNA 2: CCGTAATCATG
Does B1 bind [1]?
Result: binds

B2: bridged pair, blunt ends (dsDNA)
DNA 1: AGTGAATTCGAGCTCG
DNA 2: CGAGCTCGAATTCACT
DNA 3: CATGATTACGG
DNA 4: CCGTAATCATG
Does B2 bind [2]?
Result: binds
